Values belong to the binder of their own block, whether it stands above or below them. Square brackets hold non-standard residues; d marks the D form. Ends that are not written are not given here. pT = C[C@@H](OP(=O)(O)O)[C@H](N)C(=O)O; pS = N[C@@H](COP(=O)(O)O)C(=O)O
B2: Arabidopsis 14-3-3 lambda (At14-3-3-λ^1−248) (natural protein, Arabidopsis thaliana, UniProt P48349 1-248, looked up)
chain: MAATLGRDQYVYMAKLAEQAERYEEMVQFMEQLVTGATPAEELTVEERNLLSVAYKNVIGSLRAAWRIVSSIEQKEESRKNDEHVSLVKDYRSKVESELSSVCSGILKLLDSHLIPSAGASESKVFYLKMKGDYHRYMAEFKSGDERKTAAEDTMLAYKAAQDIAAADMAPTHPIRLGLALNFSVFYYEILNSSDKACNMAKQAFEEAIAELDTLGEESYKDSTLIMQLLRDNLTLWTSDMQEQMDEA
notes: 14-3-3 lambda (GRF6), Arabidopsis thaliana, full length, residues 1-248; The ITC text names 14-3-3λ without limits; a truncated 1-240 construct was also cloned; not shown: thioredoxin A, N-terminal, cleaved; 8xHis, N-terminal, cleaved; StrepII, N-terminal, cleaved
B6: C-terminal truncated At14-3-3-ω^1−237 (domain or fragment, Arabidopsis thaliana, UniProt Q01525 1-237, looked up)
chain: MASGREEFVYMAKLAEQAERYEEMVEFMEKVSAAVDGDELTVEERNLLSVAYKNVIGARRASWRIISSIEQKEESRGNDDHVTAIREYRSKIETELSGICDGILKLLDSRLIPAAASGDSKVFYLKMKGDYHRYLAEFKTGQERKDAAEHTLAAYKSAQDIANAELAPTHPIRLGLALNFSVFYYEILNSPDRACNLAKQAFDEAIAELDTLGEESYKDSTLIMQLLRDNLTLWTSD
notes: 14-3-3 omega (GRF2), Arabidopsis thaliana, residues 1-237; also called truncated 14-3-3 ω; not shown: thioredoxin A, N-terminal, cleaved; 8xHis, N-terminal, cleaved; StrepII, N-terminal, cleaved
B8: Arabidopsis 14-3-3 omega, full length (At14-3-3-ω^1−259) (natural protein, Arabidopsis thaliana, UniProt Q01525 1-259, looked up)
chain: MASGREEFVYMAKLAEQAERYEEMVEFMEKVSAAVDGDELTVEERNLLSVAYKNVIGARRASWRIISSIEQKEESRGNDDHVTAIREYRSKIETELSGICDGILKLLDSRLIPAAASGDSKVFYLKMKGDYHRYLAEFKTGQERKDAAEHTLAAYKSAQDIANAELAPTHPIRLGLALNFSVFYYEILNSPDRACNLAKQAFDEAIAELDTLGEESYKDSTLIMQLLRDNLTLWTSDMQDDAADEIKEAAAPKPTEEQQ
notes: 14-3-3 omega (GRF2), Arabidopsis thaliana, full length, residues 1-259; ITC and SEC-RALS name 14-3-3 ω without limits; not shown: thioredoxin A, N-terminal, cleaved; 8xHis, N-terminal, cleaved; StrepII, N-terminal, cleaved

Key:
[1] = biological target: B6; test: crystal structure; co-crystallisation of 14-3-3 with 1-3 mM phosphopeptide; molecular replacement; details: both partners purified
[2] = biological target: B2; test: ITC; Nano ITC, 25°C, 25 mM Hepes pH 7.0, 50 mM KCl; 600 μM peptide or phosphopeptide injected into 50 μM 14-3-3 protein in the cell, 25 injections; details: both partners purified
At14-3-3 λ^N233A = biological target: T1, At14-3-3 λ^N233A (Arabidopsis thaliana, UniProt P48349 1-248, N233A); test: as above; details: both partners purified
T1 construct: 14-3-3 lambda (GRF6), Arabidopsis thaliana, with N233A; also called 14-3-3λ Asn233→ Ala mutant; source: E. coli BL21 (DE3) RIL, purified using the same protocol as the wild type; not shown: thioredoxin A, N-terminal, cleaved; 8xHis, N-terminal, cleaved; StrepII, N-terminal, cleaved
T1 sequence (looked up): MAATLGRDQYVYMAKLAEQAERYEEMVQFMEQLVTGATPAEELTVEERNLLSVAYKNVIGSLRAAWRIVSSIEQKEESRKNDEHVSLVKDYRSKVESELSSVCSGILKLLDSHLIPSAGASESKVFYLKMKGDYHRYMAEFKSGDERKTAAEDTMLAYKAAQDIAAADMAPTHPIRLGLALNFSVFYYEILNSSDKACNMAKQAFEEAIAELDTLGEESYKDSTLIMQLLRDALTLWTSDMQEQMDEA

[3] = biological target: the molecule itself; test: crystal structure; co-crystallisation of 14-3-3 with 1-3 mM phosphopeptide; molecular replacement
[4] = biological target: the molecule itself; test: SEC; analytical, Superdex 200 increase 10/300 GL, 25 mM Hepes pH 7.0, 50 mM KCl; 500 μl of protein at 2.0 mg/ml
[5] = biological target: B8; test: ITC; Nano ITC, 25°C, 25 mM Hepes pH 7.0, 50 mM KCl; 600 μM peptide or phosphopeptide injected into 50 μM 14-3-3 protein in the cell, 25 injections; details: both partners purified
[6] = biological target: B8; test: crystal structure; co-crystallisation of 14-3-3 with 1-3 mM phosphopeptide; molecular replacement; details: both partners purified
[7] = biological target: T2, Arabidopsis 14-3-3 isoform kappa (At14-3-3-κ^1−248) (Arabidopsis thaliana, UniProt P48348 1-248); test: ITC; Nano ITC, 25°C, 25 mM Hepes pH 7.0, 50 mM KCl; 600 μM peptide or phosphopeptide injected into 50 μM 14-3-3 protein in the cell, 25 injections; details: both partners purified
T2 construct: 14-3-3 kappa (GRF8), Arabidopsis thaliana, full length, residues 1-248; The ITC text names 14-3-3κ without limits; a truncated 1-240 construct was also cloned; not shown: thioredoxin A, N-terminal, cleaved; 8xHis, N-terminal, cleaved; StrepII, N-terminal, cleaved
T2 sequence (looked up): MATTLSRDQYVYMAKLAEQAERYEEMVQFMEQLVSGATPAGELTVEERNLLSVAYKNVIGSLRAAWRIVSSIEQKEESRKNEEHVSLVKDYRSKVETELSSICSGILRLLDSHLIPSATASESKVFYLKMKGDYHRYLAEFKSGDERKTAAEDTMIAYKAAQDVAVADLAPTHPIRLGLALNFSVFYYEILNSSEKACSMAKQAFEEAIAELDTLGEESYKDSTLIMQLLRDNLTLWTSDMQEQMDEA

binding result [1]: binds
binding result [2]: binds
fold reduction of interaction by the N233A mutation (At14-3-3 λ^N233A): ~5 fold
B1: pBZR1^169−175 peptide (peptide)
peptide: RISN[pS]AP
notes: also called RISNpSAP; source: synthetic peptide (Peptide Specialty Laboratories)

Binder: B2
binding result [3]: binds

B3: 14-3-3 λ^R136L/Y137F (natural protein, Arabidopsis thaliana, UniProt P48349 1-248, looked up)
chain: MAATLGRDQYVYMAKLAEQAERYEEMVQFMEQLVTGATPAEELTVEERNLLSVAYKNVIGSLRAAWRIVSSIEQKEESRKNDEHVSLVKDYRSKVESELSSVCSGILKLLDSHLIPSAGASESKVFYLKMKGDYHLFMAEFKSGDERKTAAEDTMLAYKAAQDIAAADMAPTHPIRLGLALNFSVFYYEILNSSDKACNMAKQAFEEAIAELDTLGEESYKDSTLIMQLLRDNLTLWTSDMQEQMDEA
notes: 14-3-3 lambda (GRF6), Arabidopsis thaliana, with R136L and Y137F; also called 14-3-3λ Arg136→Leu/Tyr137→ Phe double mutant; source: E. coli BL21 (DE3) RIL, purified using the same protocol as the wild type; not shown: thioredoxin A, N-terminal, cleaved; 8xHis, N-terminal, cleaved; StrepII, N-terminal, cleaved
stoichiometry N [4]: 2

fold reduction of interaction by the N233A mutation (At14-3-3 λ^N233A): ~2 fold
B4: pBRI1^869−874 peptide (peptide)
peptide: RKL[pT]FA
notes: BRI1, Arabidopsis thaliana, residues 869-874, N-lobe of the kinase domain; also called RKLpTFA; source: synthetic peptide (Peptide Specialty Laboratories)

binding result [1]: binds
binding result [2]: binds
binding result [5]: binds
binding result (At14-3-3 λ^N233A): binds
B5: pBKI1^265−272 peptide (peptide)
peptide: RGELF[pS]AP
notes: also called RGELFpSAP; source: synthetic peptide (Peptide Specialty Laboratories)

Binder: B6
binding result [3]: binds

binding result [6]: binds
fold reduction of binding against the BZR1^169−175 motif [7]: ~10 fold
stoichiometry N [7]: ~1
B7: pBZR1^169−184 peptide (peptide)
peptide: RISN[pS]CPV[pT]PPVSSPT
notes: also called extended BZR1 linear motif; source: synthetic peptide (Peptide Specialty Laboratories)

Binder: B8
binding result [3]: binds

From paper PMC11558545, “Mechanistic Insights into the Function of 14-3-3 Proteins as Negative Regulators of Brassinosteroid Signaling in Arabidopsis” (Plant and Cell Physiology, 2024)
